Literature values as cited in publication PMC7593401.

Molecular target: C3b (Homo sapiens) (UniProt P01024)
Assay: SPR

C3b (Homo sapiens), sequence (P01024 23-667, chain 1 of 2): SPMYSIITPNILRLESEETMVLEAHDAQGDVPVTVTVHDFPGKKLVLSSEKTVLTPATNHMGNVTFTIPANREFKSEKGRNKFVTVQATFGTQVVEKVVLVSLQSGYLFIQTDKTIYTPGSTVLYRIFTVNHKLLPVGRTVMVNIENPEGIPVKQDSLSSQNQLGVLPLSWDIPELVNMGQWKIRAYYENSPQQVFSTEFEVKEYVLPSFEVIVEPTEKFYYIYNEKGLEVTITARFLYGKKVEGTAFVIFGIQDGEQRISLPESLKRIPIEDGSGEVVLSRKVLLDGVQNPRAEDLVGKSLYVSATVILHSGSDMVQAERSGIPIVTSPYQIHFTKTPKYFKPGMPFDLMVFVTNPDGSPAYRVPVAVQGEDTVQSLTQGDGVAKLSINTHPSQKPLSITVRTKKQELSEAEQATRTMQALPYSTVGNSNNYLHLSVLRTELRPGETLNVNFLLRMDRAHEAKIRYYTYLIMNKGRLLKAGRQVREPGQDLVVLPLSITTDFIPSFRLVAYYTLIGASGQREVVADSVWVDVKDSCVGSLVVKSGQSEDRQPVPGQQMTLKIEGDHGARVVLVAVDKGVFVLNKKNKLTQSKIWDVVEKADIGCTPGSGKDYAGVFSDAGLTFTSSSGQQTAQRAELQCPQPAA
C3b (Homo sapiens), sequence (P01024 749-1663, chain 2 of 2): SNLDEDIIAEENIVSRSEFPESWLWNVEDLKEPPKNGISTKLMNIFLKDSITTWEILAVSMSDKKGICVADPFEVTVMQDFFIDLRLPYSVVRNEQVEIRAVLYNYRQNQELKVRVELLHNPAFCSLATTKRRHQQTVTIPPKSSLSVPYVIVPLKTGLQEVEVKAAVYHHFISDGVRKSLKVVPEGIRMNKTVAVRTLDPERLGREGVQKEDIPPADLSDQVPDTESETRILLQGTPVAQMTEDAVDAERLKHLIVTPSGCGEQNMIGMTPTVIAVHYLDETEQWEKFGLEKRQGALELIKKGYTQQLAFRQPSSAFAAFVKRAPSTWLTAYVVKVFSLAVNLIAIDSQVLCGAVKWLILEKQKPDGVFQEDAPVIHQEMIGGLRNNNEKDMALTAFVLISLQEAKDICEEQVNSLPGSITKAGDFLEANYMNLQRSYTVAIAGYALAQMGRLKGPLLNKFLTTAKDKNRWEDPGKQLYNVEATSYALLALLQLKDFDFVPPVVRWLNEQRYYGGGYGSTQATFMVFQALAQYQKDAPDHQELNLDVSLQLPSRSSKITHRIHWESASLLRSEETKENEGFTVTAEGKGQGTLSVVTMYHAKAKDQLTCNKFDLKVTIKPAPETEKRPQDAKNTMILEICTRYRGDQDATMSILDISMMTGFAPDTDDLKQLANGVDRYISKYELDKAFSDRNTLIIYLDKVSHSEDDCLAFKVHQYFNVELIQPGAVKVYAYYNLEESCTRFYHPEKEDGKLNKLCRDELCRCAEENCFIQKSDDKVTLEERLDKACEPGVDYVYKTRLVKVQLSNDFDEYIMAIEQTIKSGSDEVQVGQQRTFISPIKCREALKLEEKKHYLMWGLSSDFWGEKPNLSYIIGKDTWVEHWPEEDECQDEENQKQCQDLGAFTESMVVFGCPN
Factor H, sequence (P08603 19-1231): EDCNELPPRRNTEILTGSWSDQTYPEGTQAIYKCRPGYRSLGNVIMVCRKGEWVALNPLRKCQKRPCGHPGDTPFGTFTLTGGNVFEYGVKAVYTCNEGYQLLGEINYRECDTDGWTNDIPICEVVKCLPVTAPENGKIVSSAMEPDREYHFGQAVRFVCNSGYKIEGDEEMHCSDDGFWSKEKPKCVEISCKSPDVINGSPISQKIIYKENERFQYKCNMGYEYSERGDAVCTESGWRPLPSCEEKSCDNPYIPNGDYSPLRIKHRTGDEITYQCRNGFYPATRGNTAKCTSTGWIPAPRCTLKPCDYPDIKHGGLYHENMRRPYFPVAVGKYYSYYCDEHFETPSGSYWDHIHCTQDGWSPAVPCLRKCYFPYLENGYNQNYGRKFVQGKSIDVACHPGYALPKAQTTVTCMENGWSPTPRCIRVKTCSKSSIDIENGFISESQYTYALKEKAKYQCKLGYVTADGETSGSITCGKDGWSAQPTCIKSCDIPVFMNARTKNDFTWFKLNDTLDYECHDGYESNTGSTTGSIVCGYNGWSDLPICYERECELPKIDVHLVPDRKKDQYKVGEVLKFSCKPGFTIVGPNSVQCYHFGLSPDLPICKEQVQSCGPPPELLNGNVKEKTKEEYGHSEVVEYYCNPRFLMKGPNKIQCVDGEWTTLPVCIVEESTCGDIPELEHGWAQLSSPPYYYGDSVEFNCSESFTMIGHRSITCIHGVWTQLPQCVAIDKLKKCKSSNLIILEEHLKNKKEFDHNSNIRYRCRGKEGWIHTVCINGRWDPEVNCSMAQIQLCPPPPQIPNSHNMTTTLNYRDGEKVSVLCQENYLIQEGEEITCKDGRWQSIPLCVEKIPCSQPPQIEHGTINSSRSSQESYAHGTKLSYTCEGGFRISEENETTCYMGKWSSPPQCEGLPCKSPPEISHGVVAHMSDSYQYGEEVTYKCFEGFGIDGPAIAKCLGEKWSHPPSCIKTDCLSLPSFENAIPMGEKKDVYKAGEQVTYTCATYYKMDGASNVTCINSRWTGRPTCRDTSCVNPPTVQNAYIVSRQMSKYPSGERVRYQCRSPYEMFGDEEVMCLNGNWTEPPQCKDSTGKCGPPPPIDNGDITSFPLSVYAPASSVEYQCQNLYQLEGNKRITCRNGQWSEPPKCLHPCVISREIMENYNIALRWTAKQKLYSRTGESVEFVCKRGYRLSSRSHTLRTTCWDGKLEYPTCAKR
FHL-1, sequence (P08603 19-1231): as above

| Substance | Kd [nM] |
| --- | --- |
| Factor H (from UniProt P08603) | 600 |
| FHL-1 (from UniProt P08603) | 1000 |
